Here are results for one molecule from patent US20150118185, “Heparosan-Polypeptide and Heparosan-Polynucleotide Drug Conjugates and Methods of Making and Using Same” (The Board of Regents of the University of Oklahoma, published 2015).

This series has as its target VEGF (Homo sapiens, UniProt P15692-4 P15692-4:27-191). The series can be described thus: EMSA; 1:1 molar ratio, 3 h, room temperature, 100 mM phosphate neutral pH, 10% TBE gel; high MW complex band; confirmed by HPLC-SEC at 552 nm (FIG. 33). The settings on record: chain copies: 2; label: 5' Cy3. The text has this:
The biological activity and therapeutic action of the anti-VEGF aptamer resides in its binding to its target: human recombinant VEGF. Without access to a growth factor, some cells will not be able to proliferate or survive; thus, these molecules are drug targets. Some drugs or drug candidates operate by binding to a growth factor; these molecules can be in the antibody (naturally produced or synthetically constructed) or the apatamer (nucleic acids) classes (e.g., any binding partner in theory). […] A shift mobility assay, using a 10% TBE gel, was used in order to assess the binding of HEP-aptamer to target (FIG. 32). […] As negative and positive control, VEGF was respectively incubated in the presence of heparosan (HEP) or heparin (i.e., VEGF is known to react with heparin and heparan sulfate).

Sequence of VEGF (P15692 other isoform, or with tags, fused parts or gaps): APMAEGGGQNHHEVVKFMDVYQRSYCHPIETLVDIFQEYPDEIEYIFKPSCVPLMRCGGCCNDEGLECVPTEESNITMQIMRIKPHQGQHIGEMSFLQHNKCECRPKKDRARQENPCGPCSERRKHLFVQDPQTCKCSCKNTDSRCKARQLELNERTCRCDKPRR

B1: HEP-anti-VEGF DNA aptamer (ssDNA)
DNA: ACCCGTCTTCCAGACAAGAGTGCAGGGTT
modifications: 3' C6 thiol coupled to heparosan (38.8- or 60-kDa chain)
For the molecule B1, the binding result is listed as “binds”.
